Patent US20250206828A1, “ANTI-ADENOSINE RECEPTOR (A2aR) ANTIBODIES AND THE USE THEREOF” (Adept Therapeutics Inc., priority 2022, published 2025)
Positions count from the first letter of the chain named. In names and notes the source's numbering stands. Read-outs that look alike come from different tables or passages of the source.

B1: 3F6-9G5 (antibody, from another filing, V domains shown)
VH: QVQLQQPGTELVKPGAPVRLSCKASGFAFTSYWMNWVRQRPGRGLEWIGRIDPSDSEAHYHHKFWGKATLTVDKSSSTVYIQLNGLTSEDSAVYYCLRSLYGKGDYWGHGTTLTVSS
VL: DVLMTQTPLSLSVRLGDQASISCRSSQSLVHRNGNTYLEWYLQRPGQSPKLLIYKVSNRFSGVPDRFSGSGSGTDFTLKISRVEAEDLGVYYCYQGSHVPLTFGSGTKLEIK
B2: Hu3F6-H3/Hu3F6-L5 (antibody, human IgG1, V domains shown)
VH: EVQLVQSGAEVKKPGASVKVSCKTSGFAFTSYWMNWVRQAPGQGLEWIGRIDPSDSEAHYHHKFWGRATLTVDTSSSTVYMELSSLRSEDTAVYYCLRSLYGKGDYWGHGTTVTVSS
VL: B1 VL with L3V, R14T, L15P, D17Q, Q18P, R44K, K50Q, L88V, S105G, L109V
notes: Human IgG1 FES (L234F, L235E, P331S) and human Ig kappa constant domains; also called Hu3F6 VH3/VL5; Hu3F6-VH3/VL5
B3: Hu3F6-H3/Hu3F6-L4 (antibody, human IgG1, V domains shown)
VH: B2 VH
VL: DIVMTQTPLSLSVTPGQPASISCRSSQSLVHRNGNTYLEWYLQKPGQSPQLLIYKVSNRFSGVPDRFSGSGSGTDFTLKISRVEAEDVGVYYCYQGSHVPLTFGGGTKVEIK
notes: Human IgG1 FES (L234F, L235E, P331S) and human Ig kappa constant domains; also called Hu3F6 VH3/VL4
B4: Hu3F6-H5/Hu3F6-L4 (antibody, human IgG1, V domains shown)
VH: B2 VH with H61A, T74K
VL: B3 VL
notes: Human IgG1 FES (L234F, L235E, P331S) and human Ig kappa constant domains; also called Hu3F6 VH5/VL4
B5: Hu3F6-H5/Hu3F6-L3 (antibody, human IgG1, V domains shown)
VH: B2 VH with H61A, T74K
VL: B3 VL with I2V, T7S, S12P, P15L, L42Q, K44R, Q50R
notes: Human IgG1 FES (L234F, L235E, P331S) and human Ig kappa constant domains; also called Hu3F6 VH5/VL3
B6: Hu3F6-H5/Hu3F6-L5 (antibody, human IgG1, V domains shown)
VH: B2 VH with H61A, T74K
VL: B3 VL with I2V
notes: Human IgG1 FES (L234F, L235E, P331S) and human Ig kappa constant domains; also called Hu3F6 VH5/VL5; Hu3F6-VH5/VL5

Legend:
[1] = biological target: T1, human adenosine A2A receptor (A2aR) (human, UniProt P29274 1-412); experiment: flow cytometry titration, HEK293-hA2aR cells, purified antibody, average of 7 repeats
T1 sequence (P29274 whole entry): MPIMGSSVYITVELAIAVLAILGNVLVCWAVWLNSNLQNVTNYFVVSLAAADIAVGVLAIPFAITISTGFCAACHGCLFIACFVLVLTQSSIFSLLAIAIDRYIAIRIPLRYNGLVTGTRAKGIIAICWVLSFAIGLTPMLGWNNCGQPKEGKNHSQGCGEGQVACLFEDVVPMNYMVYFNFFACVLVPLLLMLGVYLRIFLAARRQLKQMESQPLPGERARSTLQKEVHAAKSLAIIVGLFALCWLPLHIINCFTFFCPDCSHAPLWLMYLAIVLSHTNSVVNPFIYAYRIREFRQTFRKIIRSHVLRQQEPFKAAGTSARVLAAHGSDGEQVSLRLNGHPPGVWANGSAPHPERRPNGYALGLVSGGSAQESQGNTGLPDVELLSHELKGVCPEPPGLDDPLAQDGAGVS

[2] = biological target: T1, human adenosine A2A receptor (A2aR); experiment: flow cytometry on PBMC, donor human 2
[3] = biological target: cynomolgus adenosine A2A receptor (A2aR) (cynomolgus); experiment: flow cytometry on PBMC, donor Cynomolgus 1
[4] = biological target: T1, human adenosine A2A receptor (A2aR); experiment: flow cytometry, HEK293-hA2aR cells, supernatant 1 ug/ml, average of triplicate
[5] = biological target: T1, human adenosine A2A receptor (A2aR); experiment: flow cytometry on PBMC, donor human 1
[6] = biological target: T1, human adenosine A2A receptor (A2aR); experiment: cell-based or functional assay
[7] = biological target: cynomolgus adenosine A2A receptor (A2aR) (cynomolgus); experiment: flow cytometry on PBMC, donor Cynomolgus 2
[8] = biological target: T1, human adenosine A2A receptor (A2aR); experiment: cell-based or functional assay; remark: listed apart in the source
[9] = biological target: T1, human adenosine A2A receptor (A2aR); experiment: flow cytometry, HEK293-hA2aR cells, supernatant 1 ug/ml
[10] = biological target: T1, human adenosine A2A receptor (A2aR); experiment: flow cytometry titration, HEK293-hA2aR cells, purified antibody
[11] = biological target: T1, human adenosine A2A receptor (A2aR); experiment: cell-based or functional assay; remark: listed apart in the source

Binder	% of A2aR+ CD4+ T cells [3]	% of A2aR+ CD8+ T cells [3]	% of A2aR+ NK cells [3]	% of A2aR+ NKT cells [3]	% of A2aR+ CD4+ T cells [7]	% of A2aR+ CD8+ T cells [7]	% of A2aR+ NK cells [7]	% of A2aR+ NKT cells [7]	IC50 of blocking activity, cAMP-Glo, 300 nM NECA, HEK293-hA2aR cells, supernatant [8]	MFI [9]	EC50 [10]	IC50 of blocking activity, cAMP-Glo, 1.25 uM NECA, HEK293-hA2aR cells, purified antibody [11]	IC50 of blocking activity, cAMP-Glo, 5 uM Adenosine, HEK293-hA2aR cells, purified antibody [11]	further results
B1	1.36%	0.06%	3.34%	0.85%	3.26%	0.14%	2.63%	1.14%						EC50 [1]: 0.71 nM; % of A2aR+ CD4+ T cells [2]: 0.48%; % of A2aR+ CD8+ T cells [2]: 0.03%; % of A2aR+ NK cells [2]: 0.99%; % of A2aR+ NKT cells [2]: 0.47%; MFI [4]: 2040 MFI; % of A2aR+ CD4+ T cells [5]: 0.67%; % of A2aR+ CD8+ T cells [5]: 0.06%; % of A2aR+ NK cells [5]: 1.15%; % of A2aR+ NKT cells [5]: 0.62%; IC50 of blocking activity, cAMP-Glo, 300 nM NECA, HEK293-hA2aR cells, supernatant (average of triplicate) [6]: 1.3 nM; IC50 of blocking activity, cAMP-Glo, 1.25 uM NECA, HEK293-hA2aR cells, purified antibody [6]: 0.53 nM; IC50 of blocking activity, cAMP-Glo, 5 uM Adenosine, HEK293-hA2aR cells, purified antibody [6]: 0.93 nM
B2	1.65%	0.05%	6.52%	1.06%	1.2%	0.11%	2.07%	0.45%	5.3 nM	1900 MFI	0.57 nM	0.8 nM	0.6 nM	
B3									19.5 nM	1840 MFI	0.68 nM			
B4									7.8 nM	1920 MFI	0.52 nM			
B5									1.3 nM	2090 MFI	0.5 nM			
B6	4.76%	0.15%	5.71%	4.14%	10.6%	0.41%	2.92%	4.28%	0.9 nM	1850 MFI	0.59 nM	0.6 nM	0.8 nM	
